The source of these data is PMC6181439.

The target in the test is Recombinant mouse PrP lacking FT (90-230) (mouse) (UniProt P04925). The test is described as follows: SPR. Conditions: bispecific antibody.

With “scPOM-bi, POM1-POM2 bispecific single chain antibody”, the Kd (commonly a measure of binding affinity in units of concentration) was 3.6 nM and the koff – broadly, the first-order rate constant of dissociation – stood at 0.00031 s⁻¹.
